For one protein, Km and kcat results are on record in article PMC5176175, “Bg10: A Novel Metagenomics Alcohol-Tolerant and Glucose-Stimulated GH1 ß-Glucosidase Suitable for Lactose-Free Milk Preparation” (PLoS ONE, 2016).

Substrate in this data set: O=[N+]([O-])c1ccc(O[C@@H]2O[C@H](CO)[C@@H](O)[C@H](O)[C@H]2O)cc1
The data set is described as follows: purified protein. The conditions noted are these: pH 7.0, 37 °C, sodium phosphate buffer, 0.1-10 mM substrate. The class given is biochemical, uncultured bacterium.

B1: Bg10 (uncultured bacterium) (protein)
chain: MTAVRSESAELSQSPASYRFPPGFVWGAATAAYQIEGAAAEDGRTPSIWDTFSHTPGRVLNGDTGDIAADHYHRFRDDVALMSDLNLGAYRFSVSWSRVQPTGRGPAVQRGLDFYRQLVDELLEKGITPVATLYHWDLPQDLEDVGGWTVRDTPERFAEYTEIVAAALGDRVPYWTTLNEPWCSAYLGYGSGVHAPGRTDPEAALKAVHHLNLAHGRGIGVLRSLLPSTARTSITLNLHQIRPLSTSPADLDAARRIDAVGNRVWLGPILDGAYPQDVLADTGHLVDWDRLVRDGDLEEISRPIDLLGINYYTPTLVSDGRAHADGPAMPRNDGHGASAHSPWPGSEHVAFHLAPGETTAMRWAVDASGLYDLLMRIHREHPGLPMMVTENGAAYDDYISPEGAINDPDRIAYLRGHLSAVHRALADGADVRGYFLWSLLDNFEWAYGYSKRFGAVYVDFGTQRRIPKQSAHWYAAVARDNVLPDGPEEDGTS
notes: ORF10 in pET28a (EcoRI/HindIII), E. coli BL21(DE3), Ni-NTA and size exclusion
As for B1, the Km stood at 490 ± 120 µM and the kcat is 2.918 ± 0.115 s⁻¹.

For orientation: Km means the substrate concentration at which the rate is half of its maximum. A word on the kcat: it is the maximal rate divided by the concentration of active sites.
